The record followed here is PMC5959942, “Targeting G protein-coupled receptor signaling at the G protein level with a selective nanobody inhibitor” (Nature Communications, 2018).

Experiment [1] deals with T1, bovine Gβ1γ1 dimer (β1γ1 subunits of the visual G protein Gt, transducin) (bovine, UniProt P62871;P02698).
For experiment [2], the target named is T2, mouse Gβ1 subtype from brain (mouse (endogenous in C57BL/6J brain), UniProt P62874).
T2 construct: G protein beta subunit subtype 1, mouse brain; Extracted as Gβγ; the Gγ partner is not identified; source: endogenous, C57BL/6J mouse brain membranes, cholate-solubilized and partially purified (DEAE Sepharose)
As to the kind of experiment: affinity purification with mass spectrometry; cholate-solubilized, DEAE-purified C57BL/6J mouse brain extract with a two molar excess of His-tagged Nb5, Ni2+-NTA then Talon resin; Gβ gel band digested in gel, LC-MS/MS. Conditions: one partner purified.

For experiment [3], the target named is T3, mouse Gβ4 subtype from brain (mouse (endogenous in C57BL/6J brain), UniProt P29387).
T3 construct: G protein beta subunit subtype 4, mouse brain; Extracted as Gβγ; the Gγ partner is not identified; source: endogenous, C57BL/6J mouse brain membranes, cholate-solubilized and partially purified (DEAE Sepharose)
Described as above. The settings on record: one partner purified.

The target in experiment [4] is T4, mouse Gβ3 subtype from brain (mouse (endogenous in C57BL/6J brain), UniProt Q61011).
T4 construct: G protein beta subunit subtype 3, mouse brain; Extracted as Gβγ; the Gγ partner is not identified; source: endogenous, C57BL/6J mouse brain membranes, cholate-solubilized and partially purified (DEAE Sepharose)
Described as above. The settings on record: one partner purified.

Experiment [5] has as its target T5, mouse Gβ2 subtype from brain (mouse (endogenous in C57BL/6J brain), UniProt P62880).
T5 construct: G protein beta subunit subtype 2, mouse brain; Extracted as Gβγ; the Gγ partner is not identified; source: endogenous, C57BL/6J mouse brain membranes, cholate-solubilized and partially purified (DEAE Sepharose)
The description is as above. The settings on record: one partner purified.

In experiment [6] the target is T1, bovine Gβ1γ1 dimer (β1γ1 subunits of …). As to the kind of experiment: SPR; Biacore T100, 25 °C; Nb5 amine-coupled on CM5 (400-500 RU); Gβ1γ1 0.6-312 nM in 10 mM HEPES pH 7.5, 150 mM NaCl, 1 mM TCEP, 0.1% Tween-20; single-cycle kinetics, 1:1 Langmuir fit. Conditions: both partners purified.
The target is the same in experiment [7]. The experiment can be described thus: SPR; same set-up as a5; affinity based (equilibrium) analysis. The settings on record: both partners purified.
The target of experiment [8] is T6, Venus-Gβ4γ2 (Venus 156-239-Gβ4 + Venus 1-155-Gγ2) (UniProt Q9HAV0;P59768).
T6 construct: G protein beta subunit subtype 4, GenBank AF300648; G protein gamma subunit 2; also called Venus-Gβγ; Gβ4 + Gγ2 pair; source: HEK293T/17, transfected, in living cells; not shown: Venus 156-239 (with GGSGGG linker), N-terminal, kept
As to the kind of experiment: FRET or BRET; BRET between Venus-Gβγ and masGRK3ct-Nluc-HA in living HEK293T/17 cells, room temperature; GαoA, Nb5-Flag or Nb17-Flag co-transfected as competitor (plasmid ratio GαoA:Gβ:Gγ2:masGRK3ct:nanobody 2:1:1:1:12). The settings on record: partners not purified.

In experiment [9] the target is T7, Venus-Gβ3γ2 (Venus 156-239-Gβ3 + Venus 1-155-Gγ2) (UniProt P16520;P59768).
T7 construct: G protein beta subunit subtype 3, GenBank M31328; G protein gamma subunit 2; also called Venus-Gβγ; Gβ3 + Gγ2 pair; source: HEK293T/17, transfected, in living cells; not shown: Venus 156-239 (with GGSGGG linker), N-terminal, kept
Described as above. Conditions: partners not purified.

For experiment [10], the target named is T8, Venus-Gβ1γ2 (Venus 156-239-Gβ1 + Venus 1-155-Gγ2) (UniProt P62873;P59768).
T8 construct: G protein beta subunit subtype 1; G protein gamma subunit 2; also called Venus-Gβγ; source: HEK293T/17, transfected, in living cells
The description is as above. The settings on record: partners not purified.

The target in experiment [11] is T9, Venus-Gβ2γ2 (Venus 156-239-Gβ2 + Venus 1-155-Gγ2) (UniProt P62879;P59768).
T9 construct: G protein beta subunit subtype 2, GenBank AF501883; G protein gamma subunit 2; also called Venus-Gβγ; Gβ2 + Gγ2 pair; source: HEK293T/17, transfected, in living cells; not shown: Venus 156-239 (with GGSGGG linker), N-terminal, kept
The description is as above. Conditions: partners not purified.

B1: Nb6 (VHH)
VHH: QVQLVESGGGLVQAGGSLRLSCAASGSIFSINAMNWYRQAPGKRRELVAAITNGGSTNYADSVKGRFTISRDNAKNTVYLQMNSLKPEDTAVYYCNVGRSRGYWGQGTQVTVSS
Turning to B1, the binding result in experiment [1] is recorded as “binds”.

B2: Nb5 (llama-derived nanobody against the Gβ1γ1 dimer), C-terminal His-tag (VHH)
VHH: QVQLVESGGGLVQAGGSLRLSCAASGSIFSINAMGWYRQAPGKQRELVAAITRGGRTNYADSVKGRFTLSRDNAKNTVYLQMNSLKPEDTAVYYCNVGRSRGYWGQGTQVTVSS
notes: Selected from a library in the phage display vector pMESy4; not shown: His6, C-terminal, kept
In general, Kd refers to a measure of binding affinity in units of concentration. A high value points to a looser complex. What is called koff is the first-order rate constant of dissociation. Lower therefore signals slow dissociation. In general, kon refers to a measure of how fast the partners come together. Low readings indicate slow association, high ones fast association. Take B2: the binding result in experiment [2], in experiment [3], in [4] and in [5] was “binds” throughout. The values for the dissociation constant Kd in [6] and in experiment [7] were 43 nM and 53 nM, respectively. Also, the koff in experiment [6] stood at 0.019 s⁻¹. In experiment [6], this molecule returned a kon of 440000 M⁻¹ s⁻¹.

B3: Nb5-Flag (Nb5 with the 6 × His-tag replaced by the FLAG-tag) (VHH)
VHH: QVQLVESGGGLVQAGGSLRLSCAASGSIFSINAMGWYRQAPGKQRELVAAITRGGRTNYADSVKGRFTLSRDNAKNTVYLQMNSLKPEDTAVYYCNVGRSRGYWGQGTQVTVSS
notes: source: HEK293T/17, transfected, in living cells; CHO-APJ cells, transiently transfected (pcDNA3.1(+)); not shown: FLAG, C-terminal, kept
For B3, the binding result in experiment [8], in [9], in experiment [10] and in experiment [11] was “binds” each time.

B4: Nb7 (VHH)
VHH: QVQLVESGGGLVQAGESLRLSCAASGNIFSINATNWYRQAPGKQRELVAGITTRGSTNYADSVKGRFTISRDNAKNTVYLQMNSLKPEDTAVYYCNVGRSRGYWGQGTQVTVSS
As for B4, the binding result in experiment [1] is listed as “binds”.
